Measurements: patent US9988428B2, “Pegylated bioactive peptides and uses thereof” (GRIFFON PHARMACEUTICALS INC., priority 2016, dated 2018)
Non-standard residues stand in square brackets, D forms with d. No end group written: not given here. hArg = N=C(N)NCCCC[C@H](N)C(=O)O; Orn = NCCC[C@H](N)C(=O)O

Tests used:
human GHRH receptor = biological target: T1, human GHRH receptor (Homo sapiens, UniProt Q02643); assay: Hit Hunter (DiscoveRx) cAMP agonist assay in cells expressing GHRH receptor; format: cell-based; conditions: for In vitro potency / biological activity (in words): effect of Cys-PEG substitution compared with native peptide
T1 sequence (Q02643 23-423): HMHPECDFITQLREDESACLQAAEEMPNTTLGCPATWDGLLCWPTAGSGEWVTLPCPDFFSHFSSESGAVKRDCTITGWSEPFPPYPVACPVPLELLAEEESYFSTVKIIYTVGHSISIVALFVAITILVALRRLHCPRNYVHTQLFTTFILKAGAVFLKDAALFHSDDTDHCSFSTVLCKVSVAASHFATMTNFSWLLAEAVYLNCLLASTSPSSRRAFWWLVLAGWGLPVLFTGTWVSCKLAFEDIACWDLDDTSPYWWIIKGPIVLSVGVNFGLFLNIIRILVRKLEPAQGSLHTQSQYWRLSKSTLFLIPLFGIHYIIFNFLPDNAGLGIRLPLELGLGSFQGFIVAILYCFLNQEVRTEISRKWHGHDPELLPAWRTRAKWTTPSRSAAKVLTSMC
Protocol: For agonist determination, cells were incubated with sample to induce response. Media was aspirated from cells and replaced with 15 μL 2:1 HBSS/10 mM Hepes: cAMP XS+Ab reagent. […] Vehicle concentration was 1%. After appropriate compound incubation, assay signal was generated through incubation with 20 μL cAMP XS+ED/CL lysis cocktail for one hour followed by incubation with 20 μL cAMP XS+EA reagent for three hours at room temperature. Microplates were read following signal generation with a PerkinElmer Envision™ instrument for chemiluminescent signal detection. Compound activity was analyzed using CBIS data analysis suite (ChemInnovation, CA).

Growth Hormone secretion = assay: GH release after subcutaneous injection of GHRH analogs in Sprague-Dawley rats (plasma GH ELISA); format: in vivo; conditions: female rats; for Growth hormone AUC (0-90 min): single subcutaneous dose 0.04 mg/kg, plasma GH, FIG. 1
Excerpt: Sprague-Dawley rats (female, weighing from 250 to 300 g) were obtained from Charles River Inc. Animals were used according to a protocol of the Animal Care Committee along with the principles of the Guide for the Care and Use of Experimental Animals of the Canadian Council on Animal Care. The animals were maintained on standard laboratory chow under a 12:12 light:dark cycle. They were kept in groups of 4 rats per cage. The animals were anesthetized with isoflurane 2.5%. A mid-section opening was made in the neck to expose the carotid artery. The carotid artery was canulated with polypropylene tubing (PE-50) to allow blood withdrawal. After surgical preparation, rats received a subcutaneous injection of GHRH analog (10-100 μg/kg) dissolved in 20 mM AcONa+5% mannitol at pH 5). Blood samples (400 μL/time point) were collected from 2-4 animals per group. […] Blood was collected into microtainer tubes containing K3EDTA, mixed and immediately centrifuged at 13,000 RPM in a desktop centrifuge for 2 minutes. The plasma was collected and placed into a screw cap Eppendorf™ tube and quickly frozen in liquid nitrogen. The samples were then kept at −80° C. until assayed. Determination of GH levels was performed as described below.
Rat and mouse plasma samples were vortexed carefully and centrifuged at 9,000 RPM for 2 min at 4° C. […] The remainder of the procedure was performed according to the manufacturer's instructions, and the data obtained were analyzed using GraphPad Prism™ software. […] Growth hormone levels were determined in timed-aliquots of blood and are depicted in FIG. 1. […]
The N-terminal part of the GHRH peptide is known to be buried in the extracellular loops and transmembrane domains of the GHRH receptor, and thus almost all of the amino acids in the N-terminal domain participate in high affinity binding of the GHRH peptide to the receptor. […] Briefly, peptides (0.04 mg/kg) were subcutaneously injected in female rats and growth hormone levels were determined in timed aliquots of blood drawn from the animals.

Compound	In vitro potency / biological activity (in words) (human GHRH receptor)	other results
YaDAIFTAC(Peg-40K)YROVLAQLSAROALQDILS(Har)-NH2 (Y[dA]DAIFTAC(PEG 40 kDa)YR[Orn]VLAQLSAR[Orn]ALQDILS[hArg]-NH2) [Analog 16, GHRH analog, about 40 kDa PEG on Cys9, C-terminal Har-NH2]	without loss of in vitro biological activity	
YaDAIFTAC(Peg-2K)YROVLAQLSAROALQDILSKN-NH2 (Y[dA]DAIFTAC(PEG 2 kDa)YR[Orn]VLAQLSAR[Orn]ALQDILSKN-NH2) [Analog 6, GHRH analog, Cys conjugated to about 2 kDa PEG at position 9]		Growth hormone AUC (0-90 min) (Growth Hormone secretion): 29075 ng/ml/90 min
YaDAIFTC(Peg-2K)SYROVLAQLSAROALQDILSKN-NH2 (Y[dA]DAIFTC(PEG 2 kDa)SYR[Orn]VLAQLSAR[Orn]ALQDILSKN-NH2) [Analog 7, GHRH analog, Cys conjugated to about 2 kDa PEG at position 8]	reduced potency	Growth hormone AUC (0-90 min) (Growth Hormone secretion): 15657 ng/ml/90 min
YaDAIFTASYROVLAQLSAROALQDILC(Peg-2K)KN-NH2 (Y[dA]DAIFTASYR[Orn]VLAQLSAR[Orn]ALQDILC(PEG 2 kDa)KN-NH2) [Analog 1, GHRH analog, Cys conjugated to about 2 kDa PEG at position 28]		Stimulation of GH secretion (in words) (Growth Hormone secretion; subcutaneous 0.04 mg/kg, FIG. 1 / FIG. 2): potently stimulated GH secretion
YaDAIFTAC(Peg-2K)YROVLAQLSAROALQDILS-(Har)-NH2 (Y[dA]DAIFTAC(PEG 2 kDa)YR[Orn]VLAQLSAR[Orn]ALQDILS[hArg]-NH2) [Analog 10, GHRH analog, about 2 kDa PEG on Cys9, C-terminal Har-NH2]		Fold more potent than the native peptide (human GHRH receptor; Table 3 experiment, versus GHRH1-29): ~14 fold
YaDAIFTASYROVLAC(Peg-2K)LSAROALQDILSKN-NH2 (Y[dA]DAIFTASYR[Orn]VLAC(PEG 2 kDa)LSAR[Orn]ALQDILSKN-NH2) [Analog 9, GHRH analog, Cys conjugated to about 2 kDa PEG at position 16]	reduced potency	
CC[C@H](C)[C@H](NC(=O)[C@H](C)NC(=O)[C@H](CC(=O)O)NC(=O)[C@H](C)NC(=O)[C@@H](N)Cc1ccc(O)cc1)C(=O)N[C@@H](Cc1ccccc1)C(=O)N[C@H](C(=O)N[C@@H](CC(N)=O)C(=O)N[C@@H](CO)C(=O)N[C@@H](Cc1ccc(O)cc1)C(=O)N[C@@H](CCCNC(=N)N)C(=O)N[C@@H](CCCCN)C(=O)N[C@H](C(=O)N[C@@H](CC(C)C)C(=O)NCC(=O)N[C@@H](CCC(N)=O)C(=O)N[C@@H](CC(C)C)C(=O)N[C@@H](CO)C(=O)N[C@@H](C)C(=O)N[C@@H](CCCNC(=N)N)C(=O)N[C@@H](CCCCN)C(=O)N[C@@H](CC(C)C)C(=O)N[C@@H](CC(C)C)C(=O)N[C@@H](CCC(N)=O)C(=O)N[C@@H](CC(=O)O)C(=O)N[C@H](C(=O)N[C@@H](CCSC)C(=O)N[C@@H](CO)C(=O)N[C@@H](CCCNC(=N)N)C(N)=O)[C@@H](C)CC)C(C)C)[C@@H](C)O [GHRH1-29, reference compound]		Max. response (%) (human GHRH receptor; Table 3, independent experiment): 112.97%
YaDAIFTASYROVLC(Peg-2K)QLSAROALQDILSKN-NH2 (Y[dA]DAIFTASYR[Orn]VLC(PEG 2 kDa)QLSAR[Orn]ALQDILSKN-NH2) [Analog 5, GHRH analog, Cys conjugated to about 2 kDa PEG at position 15]	reduced potency	
YaDAIFTAC(Peg-5K)YROVLAQLSAROALQDILS(Har)-NH2 (Y[dA]DAIFTACYR[Orn]VLAQLSAR[Orn]ALQDILS[hArg]-NH2; not fully specified (residue 9); printed as YaDAIFTAC(Peg-5K)YROVLAQLSAROALQDILS(Har)-NH2) [Analog 15, GHRH analog, 5K PEG on Cys9, C-terminal Har-NH2]	without loss of in vitro biological activity	
YaDAIFTASYROVLAQLSAROALQDC(Peg-2K)LSKN-NH2 (Y[dA]DAIFTASYR[Orn]VLAQLSAR[Orn]ALQDC(PEG 2 kDa)LSKN-NH2) [Analog 8, GHRH analog, Cys conjugated to about 2 kDa PEG at position 26]	reduced potency	
YaDAIFTASYROVLAQLSC(Peg-2K)ROALQDILSKN-NH2 (Y[dA]DAIFTASYR[Orn]VLAQLSC(PEG 2 kDa)R[Orn]ALQDILSKN-NH2) [Analog 4, GHRH analog, Cys conjugated to about 2 kDa PEG at position 19]	reduced potency	
